Test results as given in PMC11839890 (European Journal of Nuclear Medicine and Molecular Imaging, 2024).
Non-standard residues stand in square brackets, D forms with d. Residues, ends and D or L forms follow the SMILES beside them. *: point of attachment. DOTA = O=C(O)CN1CCN(CC(=O)O)CCN(CC(=O)*)CCN(CC(=O)O)CC1; 1Nal = N[C@@H](Cc1cccc2ccccc12)C(=O)O; NMeNle = CCCC[C@H](NC)C(=O)O

Assays:
[1] = Extended single-dose toxicity study in Wistar rats; conditions: male, rat, in vivo, intravenous, for humans
Protocol: The first clinical dose for the therapeutic application was established based on a previous extended singe-dose toxicity study performed on the chemical precursor DOTA-MGS5 in a GLP-compliant laboratory (BSL BIOSERVICE Scientific Laboratories Munich GmbH, Planegg/Munich, Germany). According to applicable guidelines a targeted programme of non-clinical testing was followed. The safety was assessed in a single species and no repeated dose study was performed, as complete clearance between administrations is expected. The study was conducted in male Wister rats and included three dose groups and one control group. The histopathological examination was focused on the main target organs.

[2] = parameters: method as in PMID 34208516; conditions: established for humans from the rat study; cited from earlier work
[3] = in vivo; conditions: female, BALB/c nude (athymic), mouse, iv, 20 pmol peptide, total radioactivity
Protocol: Biodistribution studies were performed in female athymic BALB/c nude mice (Charles River Laboratories, Sulzfeld, Germany) with A431-CCK2R xenografts induced and animals treated as described previously. The study was approved by the Austrian Ministry of Science (2022–0.351.553). […] Statistical analysis was performed on the data sets using the unpaired two-tailed t-test with a significance level of 0.05.

SMILES | 1/100 of NOAEL [1] [µg/kg] | NOAEL (no observed adverse effect level) [2] [mg/kg body weight] | tissue uptake at 4 h ([3]; kidney uptake) [%ID/g] | tissue uptake at 4 h ([3]; stomach uptake) [%ID/g] | tissue uptake at 4 h ([3]; tumour uptake) [%ID/g]
CCCC[C@@H](C(=O)N[C@@H](CC(=O)O)C(=O)N[C@@H](Cc1cccc2ccccc12)C(N)=O)N(C)C(=O)[C@H](Cc1c[nH]c2ccccc12)NC(=O)CNC(=O)[C@H](Cc1ccc(O)cc1)NC(=O)[C@H](C)NC(=O)[C@@H](CCC(=O)O)NC(=O)CN1CCN(CC(=O)O)CCN(CC(=O)O)CCN(CC(=O)O)CC1 [DOTA-MGS5, DOTA-DGlu-Ala-Tyr-Gly-Trp-(N-Me)Nle-Asp-1-Nal-NH2] | 4 | 0.4 |  |  | 
CCCC[C@@H](C(=O)N[C@@H](CC(=O)O)C(=O)N[C@@H](Cc1cccc2ccccc12)C(N)=O)N(C)C(=O)[C@H](Cc1c[nH]c2ccccc12)NC(=O)CNC(=O)[C@H](Cc1ccc(O)cc1)NC(=O)[C@H](C)NC(=O)[C@@H](CCC(=O)O)NC(=O)CN1CCN(CC(=O)O)CCN(CC(=O)O)CCN(CC(=O)O)CC1 [[^111In]In-DOTA-MGS5, metal not drawn] |  |  | 3.9 ± 0.5 | 8.2 ± 2.4 | 
CSCC[C@H](NC(=O)[C@H](Cc1c[nH]c2ccccc12)NC(=O)CNC(=O)[C@H](Cc1ccc(O)cc1)NC(=O)[C@H](C)NC(=O)[C@@H](CCC(=O)O)NC(=O)CN1CCN(CC(=O)O)CCN(CC(=O)O)CCN(CC(=O)O)CC1)C(=O)N[C@@H](CC(=O)O)C(=O)N[C@@H](Cc1cccc2ccccc12)C(N)=O [[^111In]In-DOTA-[1Nal^8]MG11, metal not drawn] ({DOTA}-[dE]AYGWMD[1Nal]-NH2) |  |  | 1.1 ± 0.1 | 1.2 ± 0.3 | 1.2 ± 0.2
CCCC[C@@H](C(=O)N[C@@H](CC(=O)O)C(=O)N[C@@H](Cc1ccccc1)C(N)=O)N(C)C(=O)[C@H](Cc1c[nH]c2ccccc12)NC(=O)CNC(=O)[C@H](Cc1ccc(O)cc1)NC(=O)[C@H](C)NC(=O)[C@@H](CCC(=O)O)NC(=O)CN1CCN(CC(=O)O)CCN(CC(=O)O)CCN(CC(=O)O)CC1 [[^111In]In-DOTA-[(N-Me)Nle^6]MG11, metal not drawn] ({DOTA}-[dE]AYGW[NMeNle]DF-NH2) |  |  | 3 ± 0.3 | 2.9 ± 0.6 | 12.3 ± 4.2
